Source: US20260070949A1 (NOVOZYMES A S, published 2026)
Each block holds one binder with its values, some of them ahead of it.

Key:
[1] = biological target: T1, deamidase inhibitor from Chryseobacterium sp-62563
T1 chain: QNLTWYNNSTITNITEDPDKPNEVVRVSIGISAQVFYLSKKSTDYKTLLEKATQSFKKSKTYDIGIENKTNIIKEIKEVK

[2] = biological target: T2, active deamidase from Chryseobacterium sp-62563 (Chryseobacterium sp-62563); test: nanoDSF at 330 nm, Tm of the deamidase/inhibitor complex; active deamidase alone (SEQ ID NO: 4) gave 66.3° C.
T2 construct: Protein-glutamine glutaminase (EC 3.5.1.44), called 'active deamidase'
T2 chain: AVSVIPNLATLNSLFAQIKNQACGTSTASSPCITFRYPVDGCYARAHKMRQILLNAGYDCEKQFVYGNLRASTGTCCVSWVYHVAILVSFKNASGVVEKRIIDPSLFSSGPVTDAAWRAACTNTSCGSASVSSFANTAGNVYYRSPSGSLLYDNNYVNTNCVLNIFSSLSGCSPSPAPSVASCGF
Experimental: 60 μL sample was transferred in replicates to a black-bottomed 384 well plate, and the plate was briefly centrifugated to remove potential air bubbles.
The thermal unfolding temperature of the samples was analyzed using a Prometheus NT.Plex system from NanoTemper Technologies GmbH, with the following settings: [0305] (i) Temperature scan rate: 3.3° C. per minute; and [0306] (ii) Temperature scan interval: 20-95° C.
Using the nanoDSF procedure, as described in Example 2, the thermal unfolding temperature of an active deamidase and the corresponding deamidase/inhibitor complex was measured.

B1: active deamidase from Chryseobacterium sp-62563 (protein)
chain: T2 chain
deamidase activity (% initial rate), fluorescence substrate FITC-PP-Dnp with glutamyl endopeptidase [1]: the deamidase activity (% initial rate) was significantly reduced

NanoDSF thermal unfolding temperature [2]: 70.1 ° C.
B2: deamidase inhibitor from Chryseobacterium sp-62563 (other)
chain: T1 chain
